Results: patent US20240262910A1 (Memorial Sloan Kettering, published 2024)

T1: mouse CD33 extracellular domain with 6xHis-tag (mouse, UniProt Q63994 18-240)
T1 construct: range 18-240; also called moCD33-His; moCD33(ECD)-His
T1 sequence: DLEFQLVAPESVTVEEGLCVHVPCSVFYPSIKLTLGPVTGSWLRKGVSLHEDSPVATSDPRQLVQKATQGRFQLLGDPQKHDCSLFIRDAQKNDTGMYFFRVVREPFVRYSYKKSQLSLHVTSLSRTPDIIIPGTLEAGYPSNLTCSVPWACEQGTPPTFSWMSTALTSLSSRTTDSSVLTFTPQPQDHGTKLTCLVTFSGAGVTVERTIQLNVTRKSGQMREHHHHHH

B1: TDI-Y-006 (antibody, V domains shown)
VH: EVQLLESGGGLVQPGGSLRLSCAASGFTFSTYAMSWVRQAPGKGLEWVSAISGRGGSTYYTDSVKGRFTISRDNSKNTVSLQMNSLRAEDTAVYYCAGRGDYYYYYGMDVWGQGTTVTVSA
VL: DIVMTQSPLSSPVTLGQPASFSCRSSQSLVYSDGNTYLSWLQQRPGQPPRLLIYKISNRFSGVPDRFSGSGAGTDFTLKISRVEAEDVGVYYCMQSTQFPHTFGQGTKLEIK
notes: also called 3P14 (recombinant, human IgG1 constant region)
B2: TDI-Y-007 (antibody, V domains shown)
VH: EVHLLESGGGLVQPGGSLRLSCAASGFIFSSNAMSWVRQAPGKGLEWVSAISGYGGNTYYADSVKGRFTISRDNSKNTLYLQMNSLRAEDTAVYYCAKWGTYIVGATGDYWGQGTLVTVSS
VL: QSALTQPPSASGSPGQSVTISCTGTSNDVGGYNYVSWYQQHPGKAPKLLIYEVSKRPSGVPDRFSGSQSGNTASLTVSGLQAEDEADYYCSSYAGSNNWVFGGGTKLTVL
notes: also called 4B2 (recombinant, human IgG1 constant region)
B3: 3-P14 (hybridoma antibody) (antibody, V domains shown)
VH: B1 VH
VL: B1 VL
notes: AlivaMab mouse hybridoma antibody; also called 3-P14-A
B4: 4-B2 (hybridoma antibody) (antibody, V domains shown)
VH: B2 VH
VL: B2 VL
notes: AlivaMab mouse hybridoma antibody; also called 4-B2-A

What was measured:
[1] = molecular target: T2, human CD33 extracellular domain with 6xHis-tag (human, UniProt P20138 18-259); test: BLI, huCD33-His on anti-penta-His sensor, no competitor
T2 construct: Bought (R&D Systems, Acro Biosystems); also called huCD33-His; huCD33(ECD)-His
Method: Epitope Binning. Epitope binning was carried out by a BLI competition experiment using an Octet Red96e. Human CD33-His was captured by an anti-penta-His biosensor. A 4×4 matrix with TDI-Y-006, TDI-Y-007, 1J19 and H195 was tested. A reference biosensor was used to determine the overall capture level for each antibody. After pre-binding the antibodies at saturation levels, the biosensors were dipped into antibody solutions to assess competition. […] However, when TDI-Y-006 was pre-bound, binding of TDI-Y-007 was blocked. […] Similarly, 1J19 and H195 have epitopes that partially overlap. No competition was observed between antibodies binding to the membrane-proximal IgC2 domain (TDI-Y-006 and TDI-Y-007) and antibodies binding to the membrane-distal IgV domain (1J19 and H195).

[2] = molecular target: T2, human CD33 extracellular domain with …; test: summary table; binding affinity to soluble CD33 (BLI)
Method: (§1) The binding affinity to human CD33 protein was measured by biolayer interferometry (BLI) using an Octet Red96e. All experiments were carried out using kinetic buffer (PBS pH 7.4, 0.01% BSA, 0.002% Tween-20). The antibodies were captured by an anti-huFc biosensor and a 7-point, 2-fold dilution series of huCD33-His was used as analyte. The data was processed by double reference subtraction, and response curves were globally fit to a 1:1 Langmuir binding model. […] The binding affinities are similar to the H195 reference antibody.

[3] = molecular target: T3, human CD33, full length, on cells (human, UniProt P20138 18-364); test: flow cytometry, 3T3-CD33 cells
T3 construct: NIH-3T3 cells stably overexpressing full-length human CD33, or AML lines U937 and Set2 with endogenous CD33; the cell line is named under assay; also called 3T3-huCD33; 3T3-CD33
Method: (§2) Binding to CD33 on Cells. To assess the binding of TDI-Y-006, TDI-Y-007 and 1J19 to cell surface-bound CD33, 3T3 cells overexpressing CD33, as well as the U937 AML cell line, which expresses endogenous CD33, were used. U937 CD33KO or NALM6 were included as negative controls. Briefly, NALM6, U937 CD33+ and KO cells were blocked with human IgG Fc for 20 minutes on ice. The recombinant antibodies were then serially diluted starting at 100 μg/mL concentration and added for 30 minutes on ice. AlexaFluor 647-conjugated goat anti-human F(ab′)2 was added to cells for 30 minutes on ice, washed and analyzed by flow cytometry, normalized to secondary only staining (MFI ratio). EC50 values were determined by non-linear regression.

[4] = molecular target: T3, human CD33, full length, on cells; test: summary table; flow cytometry, AML cell line U937; U937 AML cell line (endogenous CD33)
Method: as §2

[5] = molecular target: T3, human CD33, full length, on cells; test: summary table; flow cytometry, 3T3 cells overexpressing CD33
Method: as §2

[6] = molecular target: T1, mouse CD33 extracellular domain with …; test: ELISA: CD33-His protein at 5 µg/mL captured on Ni-NTA plate, antibody at 10 µg/mL in triplicate, HRP anti-human Fc detection, OD450
Method: Binding to Recombinant CD33 Protein. Binding to CD33 protein was carried out by ELISA using human CD33-His (full-length or IgC2 domain), cynomolgus monkey CD33-His and mouse CD33-His. Recombinant proteins at 5 μg/mL were captured by pre-blocked Ni-NTA plates. Candidate antibodies were added at 10 μg/mL in triplicate and detected using horseradish peroxidase (HRP)-conjugated anti-human Fc antibody. […] No binding was detected to cynomolgus or mouse CD33 for either TDI-Y-006 and TDI-Y-007. 1J19 and H195 only bound to full-length human CD33 ECD but not to IgC2 as these antibodies target the IgV domain.

[7] = molecular target: T2, human CD33 extracellular domain with …; test: BLI (Octet Red96e), antibody on anti-huFc sensor, huCD33-His as analyte, 1:1 fit
Method: as §1

[8] = molecular target: T3, human CD33, full length, on cells; test: flow cytometry, U937 cells
Method: as §2

[9] = molecular target: T3, human CD33, full length, on cells; test: flow cytometry on 3T3 cells overexpressing human CD33, antibody titration, AlexaFluor 647 goat anti-human F(ab')2 detection, MFI ratio to secondary only
Method: as §2

[10] = molecular target: T3, human CD33, full length, on cells; test: summary table; flow cytometry, 3T3 cells overexpressing CD33; 3T3 cells overexpressing CD33
Method: as §2

[11] = molecular target: T3, human CD33, full length, on cells; test: flow cytometry, purified mAb, Set2 cells
[12] = molecular target: T2, human CD33 extracellular domain with …; test: ELISA, hybridoma supernatant
[13] = molecular target: T4, human CD33 IgC2 type domain with 6xHis-tag (human, UniProt P20138 140-259); test: ELISA, hybridoma supernatant
T4 construct: Produced at LakePharma; also called huCD33IgC2-His; CD33 IgC2-6xHis

[14] = molecular target: T3, human CD33, full length, on cells; test: flow cytometry, hybridoma supernatant, U937 cells
[15] = molecular target: T3, human CD33, full length, on cells; test: flow cytometry, purified mAb, U937 cells
[16] = molecular target: T3, human CD33, full length, on cells; test: flow cytometry, hybridoma supernatant, 3T3-huCD33 cells
[17] = molecular target: T5, human CD33 IgC2 domain only, on NIH-3T3 cells (human, UniProt P20138 140-364); test: flow cytometry, hybridoma supernatant, 3T3-huCD33IgC2 cells
T5 construct: the whole entry is named here; also called 3T3-huCD33IgC2; 3T3 CD33-IgC2

[18] = molecular target: T1, mouse CD33 extracellular domain with …; test: ELISA on recombinant moCD33-His, purified hybridoma subclone antibody, readout RLU; antibody concentration not given

T3 sequence (P20138 18-364): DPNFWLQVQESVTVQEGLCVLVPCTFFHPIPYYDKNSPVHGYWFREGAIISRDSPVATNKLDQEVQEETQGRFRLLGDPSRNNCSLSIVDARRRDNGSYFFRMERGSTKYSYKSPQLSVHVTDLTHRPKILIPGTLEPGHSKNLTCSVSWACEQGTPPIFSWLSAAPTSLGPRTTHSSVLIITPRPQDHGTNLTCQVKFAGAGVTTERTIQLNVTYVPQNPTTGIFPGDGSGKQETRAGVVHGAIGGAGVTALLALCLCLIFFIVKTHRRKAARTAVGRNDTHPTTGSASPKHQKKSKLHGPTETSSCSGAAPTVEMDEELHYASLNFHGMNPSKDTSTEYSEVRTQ
T2 sequence (P20138 other isoform, or with tags, fused parts or gaps): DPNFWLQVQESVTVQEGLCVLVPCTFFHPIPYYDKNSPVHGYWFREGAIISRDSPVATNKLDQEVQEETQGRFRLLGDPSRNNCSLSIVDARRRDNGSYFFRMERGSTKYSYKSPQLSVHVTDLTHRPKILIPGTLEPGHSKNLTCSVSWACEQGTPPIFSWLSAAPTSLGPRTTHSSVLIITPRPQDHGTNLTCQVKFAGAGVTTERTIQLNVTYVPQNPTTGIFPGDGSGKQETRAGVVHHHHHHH
T5 sequence (P20138 140-364 limits assumed): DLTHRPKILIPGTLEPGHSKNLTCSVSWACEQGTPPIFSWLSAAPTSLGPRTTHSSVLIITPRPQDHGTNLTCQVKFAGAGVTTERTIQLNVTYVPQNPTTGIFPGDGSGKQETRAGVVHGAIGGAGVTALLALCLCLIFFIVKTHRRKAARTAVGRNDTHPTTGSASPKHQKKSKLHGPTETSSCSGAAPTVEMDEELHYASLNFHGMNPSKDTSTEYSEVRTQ
T4 sequence (P20138 other isoform, or with tags, fused parts or gaps): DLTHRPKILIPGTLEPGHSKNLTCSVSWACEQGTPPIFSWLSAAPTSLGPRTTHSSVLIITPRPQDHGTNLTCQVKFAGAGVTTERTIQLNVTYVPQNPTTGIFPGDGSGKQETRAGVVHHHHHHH

Row | Binder | BLI total binding capacity (Reference Biosensor) [1] | EC50 [3] | EC50 [4] | binding result [6] | Kd [7] | kon [7] | EC50 [8] | EC50 (read off the curve) [9] | EC50 [11] | RLU [12] | RLU [13] | MFI [14] | EC50 [15] | MFI [16] | MFI [17] | further results
1 | B1 | 0.86 | 5 nM | 8.5 nM | no binding (tested: 10 µg/mL) | 1.21 nM | 296000 M⁻¹ s⁻¹ | 8.5 nM | ~8 nM |  |  |  |  |  |  |  | Kd [2]: 1.2 nM; koff [2]: 0.000359 s⁻¹; kon [2]: 296000 M⁻¹ s⁻¹; EC50 [5]: 5 nM
2 | B2 | 0.299 | 17 nM | 45 nM | no binding (tested: 10 µg/mL) | 1.29 nM | 464000 M⁻¹ s⁻¹ | 44.9 nM | ~40 nM |  |  |  |  |  |  |  | koff [7]: 0.000597 s⁻¹; EC50 [10]: 17 nM
3 | B3 |  |  |  |  |  |  |  |  | 2.4 nM | 546000 RLU | 107000 RLU | 248000 MFI | 3.27 nM | 3.06e+06 MFI | 544000 MFI | 
4 | B4 |  |  |  |  |  |  |  |  | 28.5 nM | 392000 RLU | 101000 RLU | 152000 MFI | 40.5 nM | 2.82e+06 MFI | 358000 MFI | binding result [18]: no binding
